{"source": "the supplement of paper PMC9112550", "about": "“Optimization of the antimicrobial peptide Bac7 by deep mutational scanning” (BMC Biology, 2022);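 note: peptides expressed intracellularly from a pBAD plasmid library in pooled LB shake-flask culture, induced with 0.3% L-arabinose, DNA abundance read by NGS, three biological replicates, DESeq2 with apeglm shrinkage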", "data": [{"test_system": "Escherichia coli TOP10", "experiment": "shrunken log2 fold change of peptide-encoding DNA abundance (4.5 h post-induction vs induction); higher = less antimicrobial activity (less host growth inhibition)", "conditions": "time post-induction: 4.5 h; library: site-saturation at positions 5, 18, 19, 20", "values": [{"sequence": "RRIRHRPPRLPRPRPRPNCAPRP", "shrunken log2 fold change": 0.0721}, {"sequence": "RRIRFRPPRLPRPRPRPYVAPRP", "shrunken log2 fold change": -0.62}, {"sequence": "RRIRCRPPRLPRPRPRPLEFPRP", "shrunken log2 fold change": -0.245}, {"sequence": "RRIRMRPPRLPRPRPRPQWVPRP", "shrunken log2 fold change": 0.0772}, {"sequence": "RRIRPRPPRLPRPRPRPCQMPRP", "shrunken log2 fold change": 0.0359}, {"sequence": "RRIRYRPPRLPRPRPRPMFIPRP", "shrunken log2 fold change": -0.908}, {"sequence": "RRIRERPPRLPRPRPRPICIPRP", "shrunken log2 fold change": -0.0731}, {"sequence": "RRIRCRPPRLPRPRPRPKVTPRP", "shrunken log2 fold change": -0.455}, {"sequence": "RRIRDRPPRLPRPRPRPSDSPRP", "shrunken log2 fold change": -0.0584}, {"sequence": "RRIRTRPPRLPRPRPRPRQGPRP", "shrunken log2 fold change": 0.337}, {"sequence": "RRIRERPPRLPRPRPRPIFVPRP", "shrunken log2 fold change": -0.295}, {"sequence": "RRIRSRPPRLPRPRPRPVHQPRP", "shrunken log2 fold change": 0.0888}, {"sequence": "RRIRCRPPRLPRPRPRPKWTPRP", "shrunken log2 fold change": -0.0568}, {"sequence": "RRIRVRPPRLPRPRPRPQGRPRP", "shrunken log2 fold change": -0.0469}, {"sequence": "RRIRARPPRLPRPRPRPRYWPRP", "shrunken log2 fold change": 0.213}, {"sequence": "RRIRKRPPRLPRPRPRPLHHPRP", "shrunken log2 fold change": 0.141}, {"sequence": "RRIRYRPPRLPRPRPRPRWAPRP", "shrunken log2 fold change": -0.0106}, {"sequence": "RRIRLRPPRLPRPRPRPVHGPRP", "shrunken log2 fold change": 0.0748}, {"sequence": "RRIRVRPPRLPRPRPRPSYYPRP", "shrunken log2 fold change": -0.674}, {"sequence": "RRIRKRPPRLPRPRPRPRMSPRP", "shrunken log2 fold change": -0.216}, {"sequence": "RRIRNRPPRLPRPRPRPLVNPRP", "shrunken log2 fold change": -0.289}, {"sequence": "RRIRDRPPRLPRPRPRPVASPRP", "shrunken log2 fold change": 0.0264}, {"sequence": "RRIRCRPPRLPRPRPRPDPGPRP", "shrunken log2 fold change": 0.112}, {"sequence": "RRIRGRPPRLPRPRPRPNLTPRP", "shrunken log2 fold change": 0.374}, {"sequence": "RRIRDRPPRLPRPRPRPGQLPRP", "shrunken log2 fold change": -0.284}, {"sequence": "RRIRGRPPRLPRPRPRPSYSPRP", "shrunken log2 fold change": -0.0047}, {"sequence": "RRIRHRPPRLPRPRPRPFFEPRP", "shrunken log2 fold change": -0.0877}, {"sequence": "RRIRGRPPRLPRPRPRPNPKPRP", "shrunken log2 fold change": 0.391}, {"sequence": "RRIRERPPRLPRPRPRPDRNPRP", "shrunken log2 fold change": -0.25}, {"sequence": "RRIRHRPPRLPRPRPRPTDPPRP", "shrunken log2 fold change": 0.138}, {"sequence": "RRIRARPPRLPRPRPRPRQAPRP", "shrunken log2 fold change": 0.414}, {"sequence": "RRIRWRPPRLPRPRPRPCKEPRP", "shrunken log2 fold change": -0.125}, {"sequence": "RRIRQRPPRLPRPRPRPYQGPRP", "shrunken log2 fold change": 0.00707}, {"sequence": "RRIRMRPPRLPRPRPRPSMTPRP", "shrunken log2 fold change": 2.18}, {"sequence": "RRIRMRPPRLPRPRPRPYSGPRP", "shrunken log2 fold change": -0.00278}, {"sequence": "RRIRLRPPRLPRPRPRPEISPRP", "shrunken log2 fold change": 0.099}, {"sequence": "RRIRFRPPRLPRPRPRPYCFPRP", "shrunken log2 fold change": -0.615}, {"sequence": "RRIRWRPPRLPRPRPRPDHTPRP", "shrunken log2 fold change": -0.000848}, {"sequence": "RRIRTRPPRLPRPRPRPPICPRP", "shrunken log2 fold change": 0.0623}, {"sequence": "RRIRSRPPRLPRPRPRPGSTPRP", "shrunken log2 fold change": 0.0972}, {"sequence": "RRIRHRPPRLPRPRPRPQGWPRP", "shrunken log2 fold change": 0.0705}, {"sequence": "RRIRVRPPRLPRPRPRPIQMPRP", "shrunken log2 fold change": -0.0987}, {"sequence": "RRIRLRPPRLPRPRPRPHQCPRP", "shrunken log2 fold change": 0.0182}, {"sequence": "RRIRIRPPRLPRPRPRPAECPRP", "shrunken log2 fold change": -0.311}, {"sequence": "RRIRFRPPRLPRPRPRPWHHPRP", "shrunken log2 fold change": -0.325}, {"sequence": "RRIRYRPPRLPRPRPRPDKTPRP", "shrunken log2 fold change": 0.0325}, {"sequence": "RRIRTRPPRLPRPRPRPHVVPRP", "shrunken log2 fold change": -0.0414}, {"sequence": "RRIRWRPPRLPRPRPRPQGKPRP", "shrunken log2 fold change": 0.127}, {"sequence": "RRIRCRPPRLPRPRPRPKIKPRP", "shrunken log2 fold change": -0.287}, {"sequence": "RRIRPRPPRLPRPRPRPHQCPRP", "shrunken log2 fold change": -0.0701}, {"sequence": "RRIRRRPPRLPRPRPRPPFAPRP", "shrunken log2 fold change": 0.739}, {"sequence": "RRIRYRPPRLPRPRPRPYTAPRP", "shrunken log2 fold change": 0.00143}, {"sequence": "RRIRGRPPRLPRPRPRPKCWPRP", "shrunken log2 fold change": 1.09}, {"sequence": "RRIRVRPPRLPRPRPRPRWAPRP", "shrunken log2 fold change": 0.343}, {"sequence": "RRIRCRPPRLPRPRPRPQAVPRP", "shrunken log2 fold change": -0.154}, {"sequence": "RRIRSRPPRLPRPRPRPCEEPRP", "shrunken log2 fold change": 0.00181}, {"sequence": "RRIRYRPPRLPRPRPRPMQCPRP", "shrunken log2 fold change": -0.00134}, {"sequence": "RRIRCRPPRLPRPRPRPCFDPRP", "shrunken log2 fold change": -0.526}, {"sequence": "RRIRYRPPRLPRPRPRPQGAPRP", "shrunken log2 fold change": -0.238}, {"sequence": "RRIRNRPPRLPRPRPRPNCPPRP", "shrunken log2 fold change": -0.361}, {"sequence": "RRIRGRPPRLPRPRPRPNYQPRP", "shrunken log2 fold change": -0.173}, {"sequence": "RRIRNRPPRLPRPRPRPGLEPRP", "shrunken log2 fold change": -0.0966}, {"sequence": "RRIRERPPRLPRPRPRPPIQPRP", "shrunken log2 fold change": -0.27}, {"sequence": "RRIRKRPPRLPRPRPRPATVPRP", "shrunken log2 fold change": 0.0874}, {"sequence": "RRIRDRPPRLPRPRPRPAKWPRP", "shrunken log2 fold change": 0.486}, {"sequence": "RRIRNRPPRLPRPRPRPQDQPRP", "shrunken log2 fold change": -0.222}, {"sequence": "RRIRARPPRLPRPRPRPNWPPRP", "shrunken log2 fold change": 0.0205}, {"sequence": "RRIRGRPPRLPRPRPRPHVPPRP", "shrunken log2 fold change": 0.103}, {"sequence": "RRIRWRPPRLPRPRPRPVCAPRP", "shrunken log2 fold change": 0.553}, {"sequence": "RRIRKRPPRLPRPRPRPLCGPRP", "shrunken log2 fold change": 0.367}, {"sequence": "RRIRPRPPRLPRPRPRPMATPRP", "shrunken log2 fold change": 0.323}, {"sequence": "RRIRNRPPRLPRPRPRPRFTPRP", "shrunken log2 fold change": -0.286}, {"sequence": "RRIRRRPPRLPRPRPRPVTMPRP", "shrunken log2 fold change": 0.0683}, {"sequence": "RRIRLRPPRLPRPRPRPYTSPRP", "shrunken log2 fold change": -0.33}, {"sequence": "RRIRHRPPRLPRPRPRPNEFPRP", "shrunken log2 fold change": -0.00664}]}]}
